Measured values published in publication PMC9848366, “Crystal structure of vaccinia virus G3/L5 sub-complex reveals a novel fold with extended inter-molecule interactions conserved among orthopoxviruses” (Emerging Microbes & Infections, 2023).

Biological target: T1, VACV G3-ectodomain, tag-free (G3-Ecto) (vaccinia virus (VACV), UniProt P68458 22-111)
T1 sequence: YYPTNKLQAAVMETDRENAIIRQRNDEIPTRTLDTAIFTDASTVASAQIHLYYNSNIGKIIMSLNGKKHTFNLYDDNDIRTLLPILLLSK
Experiment: crystal structure
Conditions: both partners purified

B1: VACV L5-ectodomain, tag-free (L5-Ecto) (domain or fragment)
chain: NMFFMPKRKIPDPIDRLRRANLACEDDKLMIYGLPWMTTQTSALSINSKPIVYKDCAKLLRSINGSQPVSLNDVLRR
Question: Does B1 bind?
Answer: binds
